Experimental data reported in patent US20160046944, “APTAMER TO IL-17 AND USE THEREOF” (THE UNIVERSITY OF TOKYO, published 2016).
Positions count from the first letter of the chain named.

T1: IL-17 (Homo sapiens, UniProt Q16552 Q16552:24-155)
T1 sequence: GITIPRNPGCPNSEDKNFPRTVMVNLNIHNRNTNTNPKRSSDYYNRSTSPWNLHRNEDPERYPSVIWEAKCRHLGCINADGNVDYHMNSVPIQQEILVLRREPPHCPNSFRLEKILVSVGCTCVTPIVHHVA

T2: IL-17 (IL-17A) (Homo sapiens, UniProt Q16552 Q16552:24-155)
T2 sequence: T1 sequence

B1: aptamer No. 19 (mixed)
mixed: GGGUAGCCGGAGGAGTCAGTAAUCGGUACCC
modifications: 2'-OMe (M), 2'-F (F), PS (S) as marked; uppercase DNA [2'-OMe: 1-4,7,8,10,13,14,21-26,28; 2'-F: 17,18,27; PS: 6]
B2: aptamer No. 4 (mixed)
RNA: B1 mixed with T16U, T20U
modifications: 2'-OMe (M), 2'-F (F), PS (S) as marked; uppercase DNA [1,2,3,4,6,7,8,10,11,13,14,16,17,18,20,21,22,23,24,25,26,27,28]
B3: aptamer No. 24 (mixed)
mixed: B1 mixed with U27T
modifications: 2'-OMe (M), 2'-F (F) as marked; uppercase DNA [2'-OMe: 1-4,7,8,10,13,14,23-26,29-31; 2'-F: 17]
B4: aptamer No. 3 (mixed)
RNA: B1 mixed with T16U, T20U
modifications: 2'-OMe (M), 2'-F (F) as marked; uppercase DNA [1,2,3,4,5,7,8,10,11,13,14,16,17,18,20,21,22,23,24,25,26,27]
B5: aptamer No. 25 (mixed)
mixed: B1 mixed with U27T
modifications: 2'-OMe (M), 2'-F (F) as marked; uppercase DNA [2'-OMe: 1-4,7,8,10,13,14,21,23-26,29-31; 2'-F: 17]
B6: aptamer No. 23 (mixed)
mixed: B1 mixed with U27T
modifications: 2'-OMe (M), 2'-F (F), PS (S) as marked; uppercase DNA [2'-OMe: 1-4,7,8,10,13,14,23-26,29-31; 2'-F: 17; PS: 6]
B7: aptamer No. 2 (mixed)
RNA: B1 mixed with T16U, T20U
modifications: 2'-OMe (M), 2'-F (F), PS (S) as marked; uppercase DNA [2'-OMe at 1-3,10; 2'-F at 4,7,8,16,17,20,23,24,27; PS at 6; DNA at 9,29-31]
B8: aptamer No. 20 (mixed)
mixed: B1 mixed
modifications: 2'-OMe (M), 2'-F (F), PS (S) as marked; uppercase DNA [2'-OMe: 1-4,7,8,10,13,14,21,23-26,28; 2'-F: 17,18,27; PS: 6]
B9: aptamer No. 17 (mixed)
mixed: GGGGUAGCCGGAGGAGTCAGTAAUCGGUACCCC
modifications: 2'-OMe (M), 2'-F (F), PS (S) as marked; uppercase DNA [2'-OMe: 1-5,8,9,11,14,15,22,24-27,29; 2'-F: 12,18,19,28; PS: 7]
B10: aptamer No. 18 (mixed)
mixed: B9 mixed
modifications: 2'-OMe (M), 2'-F (F), PS (S) as marked; uppercase DNA; (NI) printed, likely (M) [2'-OMe: 1-5,8,9,11,14,15,24-27,29 (26 printed NI, likely M); 2'-F: 12,18,19,28; PS: 7]
B11: aptamer No. 5 (mixed)
mixed: B9 mixed
modifications: 2'-OMe (M), 2'-F (F), PS (S) as marked; uppercase DNA; SEQ ID NO:2 [1,2,3,4,5,6,7,8,9,11,12,14,15,18,19,22,23,24,25,26,27,28]
B12: aptamer No. 44 (mixed)
mixed: B1 mixed with U27T
modifications: g(M)g(M)g(M)u(M)Agc(M)c(M)Gg(M)agg(M)a(M)gTc(F)AgTa(M)au(M)c(M)g(M)g(M)Ta(M)c(M)c(M)c(M)
B13: aptamer No. 43 (mixed)
mixed: B1 mixed with U27T
modifications: g(M)g(M)g(M)u(M)Agc(M)c(M)Gg(M)agg(M)a(M)gTc(F)agTa(M)au(M)c(M)g(M)g(M)Ta(M)c(M)c(M)c(M)
B14: aptamer No. 40 (mixed)
mixed: B1 mixed with U27T
modifications: g(M)g(M)g(M)u(M)Agc(M)c(M)Gg(M)Agg(M)a(M)gTc(F)AgTa(M)au(M)c(M)g(M)g(M)Ta(M)c(M)c(M)c(M)
B15: aptamer No. 38 (mixed)
mixed: B1 mixed with U27T
modifications: g(M)g(M)g(M)u(M)Agc(M)c(M)Gg(M)Agg(M)a(M)gTc(F)agTa(M)au(M)c(M)g(M)g(M)Ta(M)c(M)c(M)c(M)
B16: aptamer No. 41 (mixed)
mixed: B1 mixed with U27T
modifications: g(M)g(M)g(M)u(M)Agc(M)c(M)Gg(M)agg(M)a(M)gTc(F)agTaau(M)c(M)g(M)g(M)Ta(M)c(M)c(M)c(M)
B17: aptamer No. 46 (mixed)
mixed: B1 mixed
modifications: g(M)g(M)g(M)u(M)Ag(S)c(M)c(M)Gg(M)Agg(M)a(M)gTc(F)agTaau(M)c(M)g(M)g(M)u(F)a(M)CCC
B18: aptamer No. 37 (mixed)
mixed: B1 mixed with U27T
modifications: g(M)g(M)g(M)u(M)Agc(M)c(M)Gg(M)Agg(M)a(M)gTc(F)agTaAu(M)c(M)g(M)g(M)Ta(M)c(M)c(M)c(M) (one (M) misprinted as (NI))
B19: aptamer No. 28 (mixed)
mixed: B1 mixed with U27T
modifications: g(M)g(M)g(M)u(M)Agc(M)c(M)Gg(M)Agg(M)a(M)gTc(F)agTaau(M)c(M)g(M)g(M)Ta(M)c(M)c(M)c(M)
B20: aptamer No. 42 (mixed)
mixed: B1 mixed with U27T
modifications: g(M)g(M)g(M)u(M)Agc(M)c(M)Gg(M)agg(M)a(M)gTc(F)agTaAu(M)c(M)g(M)g(M)Ta(M)c(M)c(M)c(M)
B21: aptamer No. 39 (mixed)
mixed: B1 mixed with U27T
modifications: g(M)g(M)g(M)u(M)Agc(M)c(M)Gg(M)Agg(M)a(M)gTc(F)AgTaa(M)u(M)c(M)g(M)g(M)Ta(M)c(M)c(M)c(M)
B22: aptamer No. 27 (mixed)
mixed: B1 mixed with U27T
modifications: g(M)g(M)g(M)u(M)Ag(S)c(M)c(M)Gg(M)Agg(M)a(M)gTc(F)agTa(M)Au(M)c(M)g(M)g(M)Ta(M)c(M)c(M)c(M)
B23: aptamer No. 45 (mixed)
mixed: B1 mixed
modifications: g(M)g(M)g(M)u(M)Ag(S)c(M)c(M)Gg(M)agg(M)a(M)gTc(F)agTaau(M)c(M)g(M)g(M)u(F)a(M)CCC

Each binder was assayed against T1, IL-17 (assay: cell_activity; NIH3T3 IL-6 release). Conditions: chain copies: 2.
Procedure: (§1) First, human IL-17 and the aptamer produced in Example 1-1 were pre-incubated at 37° C. for 30 min, and added to NIH3T3 cell (ATCC, CRL1658) together with mouse TNFα (2 ng/mL). Then, after incubation for 24 hr, the culture supernatant was collected, and the amount of IL-6 was measured by BD Cytometric Bead Array (BD Biosciences). The IL-17 inhibitory action of each aptamer was determined from the amount of IL-6. For comparison with the aptamer of the present invention, a conventionally-known aptamer (aptamer No. 50) against IL-17 was used.

B1 and B2 are the same in IC50: 2.78 nM for the first, 2.78 nM for the second.

B3 and B4 are within 1.5-fold of each other in IC50: 1.77 nM for the first, 2.08 nM for the second.

B5 and B6 are within 1.5-fold of each other in IC50: 1.64 nM for the first, 1.34 nM for the second.

First: B7
Second: B8
The IC50 of the first is 1.8-fold higher: 0.68 nM for the first, 0.37 nM for the second. The second is the more potent here.

Going from B9 to B10, the IC50 falls from 0.3 nM to 0.15 nM (2-fold).

B11 showed an IC50 of 0.13 nM.

These binders were tested against T2, IL-17 (IL-17A) (assay: cell_activity; IL-6 release, NIH3T3). Conditions: chain copies: 2.
Procedure: as §1

Going from B12 to B13, the IC50 falls from 1.83 nM to 0.49 nM (3.7-fold). The second is the more potent here.

Going from B14 to B15, the IC50 falls from 3.75 nM to 0.31 nM (12-fold).

Going from B16 to B17, the IC50 rises from 0.4 nM to 1.13 nM (2.8-fold).

B18 and B19 are within 1.5-fold of each other in IC50: 1.64 nM for the first, 2.11 nM for the second.

Compared with B20, B21 is 7.7-fold higher in IC50: 0.51 nM for the first, 3.91 nM for the second. The first is the more potent here.

First: B22
Second: B23
The IC50 of the first is 3.2-fold higher: 2.45 nM for the first, 0.76 nM for the second.

The binders below were run against T1, IL-17 (assay: SPR; IL-17R-Fc on chip). Conditions: chain copies: 2.
Procedure: Whether aptamers shown by aptamer Nos. 1-49 inhibit the binding of IL-17 and IL-17 receptor was evaluated by the surface plasmon resonance method.
For the measurement, BIAcore2000 manufactured by BIAcore was used. […] As an analyte, IL-17 (100 or 150 nM) and an aptamer (50 or 100 nM) shown by aptamer No. 1-49 were mixed, maintained for 15 min and after that the mixture was flown.

Going from B1 to B2, the binding signal rises from 8.46 % IL-17/IL-17R binding remaining to 26.8 % IL-17/IL-17R binding remaining.

Going from B3 to B4, the binding signal rises from 15.2 % IL-17/IL-17R binding remaining to 25.3 % IL-17/IL-17R binding remaining.

Compared with B5, B6 is higher in binding signal: 11.7 % IL-17/IL-17R binding remaining for the first, 13.4 % IL-17/IL-17R binding remaining for the second.

Compared with B7, B8 is lower in binding signal: 32 % IL-17/IL-17R binding remaining for the first, 18.5 % IL-17/IL-17R binding remaining for the second.

Compared with B9, B10 is higher in binding signal: 4.21 % IL-17/IL-17R binding remaining for the first, 13.6 % IL-17/IL-17R binding remaining for the second.

With B11 the binding signal was 32.3 % IL-17/IL-17R binding remaining.
